Laboratory results from article PMC7902612, “A synergetic effect of BARD1 mutations on tumorigenesis” (Nature Communications, 2021).

Target: T1, GST-BRCA1-N (N-terminal of BRCA1, 1-147 aa) (human, UniProt P38398 1-147)
T1 construct: BRCA1, human, N-terminal residues 1-147; Cloned into pGEX-4T-1, which as far as I know puts GST at the N-terminus; also called recombinant BRCA1-N
Experiment: MST; RED-NHS-labelled GST-BARD1-N or GST-BARD1^P24S-N at constant concentration (10-50 nM), twofold serial dilutions of GST-BRCA1-N; 50 mM Tris-HCl pH 7.4, 150 mM NaCl, 10 mM MgCl2, 0.05% Tween 20; 15 min at room temperature; Monolith NT.115, 20% and 40% MST power
Conditions: both partners purified

T1 sequence (P38398 1-147): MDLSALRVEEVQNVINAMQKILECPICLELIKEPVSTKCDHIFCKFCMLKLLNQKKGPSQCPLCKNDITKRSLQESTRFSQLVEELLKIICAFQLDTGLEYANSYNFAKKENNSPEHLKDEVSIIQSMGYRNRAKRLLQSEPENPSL

- Kd: 890 nM
B1: GST-BARD1-N (N-terminal of BARD1, 1-142 aa) (domain or fragment, human, UniProt Q99728 1-142, looked up)
chain: MPDNRQPRNRQPRIRSGNEPRSAPAMEPDGRGAWAHSRAALDRLEKLLRCSRCTNILREPVCLGGCEHIFCSNCVSDCIGTGCPVCYTPAWIQDLKINRQLDSMIQLCSKLRNLLHDNELSDLKEDKPRKSLFNDAGNKKNS
modifications: fluorescent label from the RED-NHS protein labeling kit (NanoTemper)
notes: BRCA1-associated RING-domain protein 1 (BARD1), human, N-terminal residues 1-142; Cloned into pGEX-4T-1, which as far as I know puts GST at the N-terminus
